{
  "source": "paper PMC13147308",
  "about": "(2025)",
  "test_in_all_cases": "ITC; Tris buffer",
  "key": {"[1]": {"molecular_target": "T1, SauCas9 WED (wedge-like) domain, His-tagged (Staphylococcus aureus)", "T1 chain": "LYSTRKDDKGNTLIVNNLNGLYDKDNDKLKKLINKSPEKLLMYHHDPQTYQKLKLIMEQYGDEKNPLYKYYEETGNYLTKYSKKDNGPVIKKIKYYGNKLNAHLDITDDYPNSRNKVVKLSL"}, "[2]": {"molecular_target": "T2, Staphylococcus aureus Cas9, full length, His-tagged (Staphylococcus aureus, UniProt J7RUA5 1-1053)", "T2 chain": "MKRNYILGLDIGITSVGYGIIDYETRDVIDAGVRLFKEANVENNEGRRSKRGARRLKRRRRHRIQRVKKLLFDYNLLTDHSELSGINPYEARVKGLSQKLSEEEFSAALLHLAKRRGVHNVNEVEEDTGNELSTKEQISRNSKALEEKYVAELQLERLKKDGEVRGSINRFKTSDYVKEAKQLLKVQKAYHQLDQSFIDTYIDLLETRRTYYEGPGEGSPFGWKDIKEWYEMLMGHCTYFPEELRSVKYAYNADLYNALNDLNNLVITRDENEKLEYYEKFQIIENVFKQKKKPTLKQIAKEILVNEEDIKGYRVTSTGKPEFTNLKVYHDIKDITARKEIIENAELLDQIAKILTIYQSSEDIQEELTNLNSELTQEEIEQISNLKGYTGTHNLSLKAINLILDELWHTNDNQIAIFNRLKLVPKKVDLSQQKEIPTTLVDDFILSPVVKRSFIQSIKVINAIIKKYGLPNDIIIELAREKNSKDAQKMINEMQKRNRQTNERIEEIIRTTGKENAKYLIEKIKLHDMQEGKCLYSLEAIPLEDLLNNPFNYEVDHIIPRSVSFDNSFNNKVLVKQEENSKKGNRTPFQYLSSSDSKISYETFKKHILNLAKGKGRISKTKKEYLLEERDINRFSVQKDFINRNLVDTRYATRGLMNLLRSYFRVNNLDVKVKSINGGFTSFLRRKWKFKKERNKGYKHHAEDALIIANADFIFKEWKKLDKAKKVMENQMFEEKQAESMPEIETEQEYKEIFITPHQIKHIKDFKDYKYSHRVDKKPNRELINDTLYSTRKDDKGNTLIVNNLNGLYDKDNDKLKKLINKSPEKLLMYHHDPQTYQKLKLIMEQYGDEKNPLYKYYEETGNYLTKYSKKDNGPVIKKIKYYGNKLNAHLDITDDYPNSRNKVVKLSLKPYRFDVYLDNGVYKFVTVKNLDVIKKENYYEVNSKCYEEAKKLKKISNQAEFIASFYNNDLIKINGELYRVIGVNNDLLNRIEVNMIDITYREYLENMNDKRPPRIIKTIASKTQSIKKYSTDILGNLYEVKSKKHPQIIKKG"}, "[3]": {"molecular_target": "T3, SauCas9 PI (PAM-interacting) domain, His-tagged (Staphylococcus aureus)", "T3 chain": "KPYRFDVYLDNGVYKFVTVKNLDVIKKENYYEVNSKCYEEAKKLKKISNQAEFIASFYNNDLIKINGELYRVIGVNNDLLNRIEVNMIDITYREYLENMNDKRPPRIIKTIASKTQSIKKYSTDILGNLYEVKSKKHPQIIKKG"}, "[4]": {"molecular_target": "T4, SauCas9 WED-PI domain construct, His-tagged (Staphylococcus aureus)", "T4 chain": "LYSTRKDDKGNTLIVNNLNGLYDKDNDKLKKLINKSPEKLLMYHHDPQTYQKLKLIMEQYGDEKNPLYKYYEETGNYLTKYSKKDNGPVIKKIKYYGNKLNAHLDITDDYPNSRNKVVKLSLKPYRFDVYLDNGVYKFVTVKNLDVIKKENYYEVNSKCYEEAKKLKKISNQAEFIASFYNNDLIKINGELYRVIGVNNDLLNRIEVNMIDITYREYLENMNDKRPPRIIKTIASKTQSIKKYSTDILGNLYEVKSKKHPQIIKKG"}},
  "data": [
    {"binder": "Staphylococcus haemolyticus AcrIIA13b, wild type, with C-terminal 6xHis tag (natural protein) MNELNNKMIEDVVLGEVELIEDLGQYFIDIEGDYEYNVEFATLSEVDYKVCALYEVATSKTYEVPYHDKLEKEDMKLFYDKWLEKDQQEETYIESVFFVNREDAESYIKDVLKGKESLTEVAAEIGYFELEHHHHHH", "values": [
      {"measurement": "Kd", "setting": "[1]", "value": 8.17, "unit": "µM"},
      {"measurement": "Kd", "setting": "[2]", "value": 6.15, "unit": "µM"},
      {"measurement": "Kd", "setting": "[3]", "value": 3.83, "unit": "µM"},
      {"measurement": "Kd", "setting": "[4]", "value": 1.61, "unit": "µM"}
    ]}
  ]
}
